From IntAct's records for PubMed 19876371

B1: Glucose-1-phosphate adenylyltransferase large subunit 1 (Solanum tuberosum (Potato)), Q00081 (parent)
chain: NKIKPGVAYSVITTENDTQTVFVDMPRLERRRANPKDVAAVILGGGEGTKLFPLTSRTATPAVPVGGCYRLIDIPMSNCINSAINKIFVLTQYNSAPLNRHIARTYFGNGVSFGDGFVEVLAATQTPGEAGKKWFQGTADAVRKFIWVFEDAKNKNIENIVVLSGDHLYRMDYMELVQNHIDRNADITLSCAPAEDSRASDFGLVKIDSRGRVVQFAEKPKGFDLKAMQVDTTLVGLSPQDAKKSPYIASMGVYVFKTDVLLKLLKWSYPTSNDFGSEIIPAAIDDYNVQAYIFKDYWEDIGTIKSFYNASLALTQEFPEFQFYDPKTPFYTSPRFLPPTKIDNCKIKDAIISHGCFLRDCSVEHSIVGERSRLDCGVELKDTFMMGADYYQTESEIASLLAEGKVPIGIGENTKIRKCIIDKNAKIGKNVSIINKDGVQEADRPEEGFYIRSGIIIILEKATIRDGTVI
partner: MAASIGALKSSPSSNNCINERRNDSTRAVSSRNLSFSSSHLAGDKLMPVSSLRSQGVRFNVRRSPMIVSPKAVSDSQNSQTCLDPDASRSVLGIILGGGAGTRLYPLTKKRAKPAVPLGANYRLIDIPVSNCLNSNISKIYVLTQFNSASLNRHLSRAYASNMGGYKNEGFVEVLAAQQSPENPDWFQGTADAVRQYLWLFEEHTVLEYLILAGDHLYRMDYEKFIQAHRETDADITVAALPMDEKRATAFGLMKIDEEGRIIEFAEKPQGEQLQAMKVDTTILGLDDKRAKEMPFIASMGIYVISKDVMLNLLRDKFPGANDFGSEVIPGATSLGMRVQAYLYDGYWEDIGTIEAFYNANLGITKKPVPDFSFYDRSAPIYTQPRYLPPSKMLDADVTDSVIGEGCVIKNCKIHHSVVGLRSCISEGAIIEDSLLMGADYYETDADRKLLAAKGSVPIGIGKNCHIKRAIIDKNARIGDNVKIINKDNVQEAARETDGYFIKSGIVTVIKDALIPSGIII

Variants of: B1
Conditions: with glgs_soltu glgs

Variant	effect of a mutation on the interaction
P339A	disrupting interaction
R100A	disrupting interaction

Now from value to variant:

effect of a mutation on the interaction	Variant
disrupting interaction	I347A
disrupting interaction	I342A
disrupting interaction	I351A;I352A
